Test results reported in patent publication US20150087812A1 (Janssen / Centocor, published 2015).
Positions count from the first letter of the chain named. One block for each binder: values may come before it.

Legend:
[1] = molecular target: T1, recombinant human ATX beta isoform with N-terminal purification tag (human, UniProt Q13822 49-863); assay: ELISA, Fab-His captured by anti-Fd, 5 nM biotinylated human ATX beta
Experimental: (§1) Fabs were captured on black MaxiSorp plates (Nunc, Cat. No. 437111) coated with 1 μg/ml sheep anti-human Fd (CH1) antibody (The Binding Site, Cat. No. PC075). Plates were washed and biotinylated human ATX was added to the captured Fabs at 5 nM. Incubation was carried out for 1 hour at room temperature with gentle shaking. Plates were washed, SA-HRP (Invitrogen, Cat. No. 43-4323) was added and chemiluminescent detection carried out.
(§2) Clones with binding above background were sequenced and unique clones identified. […] These clones were identified with binding signal to human ATX at least 6-fold above the background. Table 3 lists the identifier for VH and VL (Peptide ID) and the combination of both (Fab ID) sorted by the Fab ELISA binding data.

[2] = molecular target: T1, recombinant human ATX beta isoform with …; assay: Fab-His ELISA
Experimental: as §1, §2

B2: Fab F17 (VH H11, VL L14) (Fab, V domains shown)
VH: EVQLVQSGAEVKKPGESLKISCKGSGYSFTSYWIGWVRQMPGKGLEWMGIIYPGDSDTRYSPSFQGQVTISADKSISTAYLQWSSLKASDTAMYYCARPYGTFDYWGQGTLVTVSS
VL: EIVLTQSPATLSLSPGERATLSCRASQSVADSLAWYQQKPGQAPRLLIYKASNRATGIPARFSGSGSGTDFTLTISSLEPEDFAVYYCQQSNGWPRTFGQGTKVEIK
notes: Soluble Fab-His (E. coli supernatant); converted to mAb B3
Fab Binding [1]: 2.4e+07 relative chemiluminescence units
fold above background [2]: ≥ 6 fold

B4: Fab F97 (VH H90, VL IFWL124) (Fab, V domains shown)
VH: QVQLVQSGAEVKKPGSSVKVSCKASGGTFSSYAISWVRQAPGQGLEWMGGIIPIFGTANYAQKFQGRVTITADESTSTAYMELSSLRSEDTAVYYCARDASTYGDLDYWGQGTLVTVSS
VL: DIQMTQSPSSLSASVGDRVTITCRASQSIDGWLNWYQQKPGKAPKLLIYAASSLQSGVPSRFSGSGSGTDFTLTISSLQPEDFATYYCQQSYSTPLTFGQGTKVEIK
notes: Soluble Fab-His; converted to mAb B18
Fab Binding [1]: 5.8e+06 relative chemiluminescence units
fold above background [2]: ≥ 6 fold

B5: Fab F53 (VH H2, VL L30) (Fab, V domains shown)
VH: B4 VH with A100D, S101L, T102P, Y103L, D105R
VL: B2 VL with A30N, D31K, S32H, S91G, N92I, G93R, W94A, R96Y
notes: Soluble Fab-His; converted to mAb B4; also called P53
Fab Binding [1]: 2.4e+06 relative chemiluminescence units
fold above background [2]: ≥ 6 fold

B7: Fab F34 (VH H2, VL L28) (Fab, V domains shown)
VH: B4 VH with A100D, S101L, T102P, Y103L, D105R
VL: B2 VL with D31K, S32F, S91F, G93S, W94A, R96I
notes: Soluble Fab-His; converted to mAb B5
Fab Binding [1]: 2.3e+06 relative chemiluminescence units
fold above background [2]: ≥ 6 fold

B10: Fab F7 (VH H2, VL L6) (Fab, V domains shown)
VH: B4 VH with A100D, S101L, T102P, Y103L, D105R
VL: B2 VL with A30N, D31S, S32W, K50Y, S91G, N92H, G93R, R96F
notes: Soluble Fab-His
Fab Binding [1]: 1.8e+06 relative chemiluminescence units
fold above background [2]: ≥ 6 fold

B11: Fab F13 (VH H2, VL L11) (Fab, V domains shown)
VH: B4 VH with A100D, S101L, T102P, Y103L, D105R
VL: B2 VL with S32W, K50N, S91Y, N92I, G93R, R96I
notes: Soluble Fab-His
Fab Binding [1]: 1.1e+06 relative chemiluminescence units
fold above background [2]: ≥ 6 fold

B12: Fab F9 (VH H2, VL L8) (Fab, V domains shown)
VH: B4 VH with A100D, S101L, T102P, Y103L, D105R
VL: B2 VL with D31K, S32D, K50T, S91G, N92I, G93N, R96F
notes: Soluble Fab-His
Fab Binding [1]: 1e+06 relative chemiluminescence units
fold above background [2]: ≥ 6 fold

B13: Fab F2 (VH H2, VL L1) (Fab, V domains shown)
VH: B4 VH with A100D, S101L, T102P, Y103L, D105R
VL: B2 VL with A30R, D31N, S32F, K50D, S91G, N92Y, G93R, W94A, R96I
notes: Soluble Fab-His
Fab Binding [1]: 1.5e+06 relative chemiluminescence units
fold above background [2]: ≥ 6 fold

B15: Fab F3 (VH H2, VL L2) (Fab, V domains shown)
VH: B4 VH with A100D, S101L, T102P, Y103L, D105R
VL: B2 VL with A30N, D31N, S32F, K50G, S91F, N92K, W94A, R96L
notes: Soluble Fab-His
Fab Binding [1]: 1.4e+06 relative chemiluminescence units
fold above background [2]: ≥ 6 fold

B18: Fab F45 (VH H2, VL L34) (Fab, V domains shown)
VH: B4 VH with A100D, S101L, T102P, Y103L, D105R
VL: B2 VL with A30S, D31S, S32W, K50Y, S91F, N92K, R96F
notes: Soluble Fab-His
Fab Binding [1]: 1.2e+06 relative chemiluminescence units
fold above background [2]: ≥ 6 fold

B19: Fab F32 (VH H7, VL PH9L4) (Fab, V domains shown)
VH: B4 VH with A100D, S101V, T102A, Y103L, D105R
VL: not shown
notes: Soluble Fab-His
Fab Binding [1]: 2e+06 relative chemiluminescence units
fold above background [2]: ≥ 6 fold

B20: Fab F35 (VH H25, VL L29) (Fab, V domains shown)
VH: B4 VH with A100D, S101L, T102A, Y103L, D105R
VL: B2 VL with D31K, S32F, S91G, N92H
notes: Soluble Fab-His
Fab Binding [1]: 2.1e+06 relative chemiluminescence units
fold above background [2]: ≥ 6 fold

B21: Fab F11 (VH H2, VL L9) (Fab, V domains shown)
VH: B4 VH with A100D, S101L, T102P, Y103L, D105R
VL: B2 VL with S32F, K50T, S91G, N92S, G93T, W94A, R96Y
notes: Soluble Fab-His
Fab Binding [1]: 1.8e+06 relative chemiluminescence units
fold above background [2]: ≥ 6 fold

B22: Fab F43 (VH H2, VL L44) (Fab, V domains shown)
VH: B4 VH with A100D, S101L, T102P, Y103L, D105R
VL: B2 VL with D31K, S32F, S91Y, N92S, G93T, R96F
notes: Soluble Fab-His
Fab Binding [1]: 980000 relative chemiluminescence units
fold above background [2]: ≥ 6 fold

B26: Fab F8 (VH H2, VL L7) (Fab, V domains shown)
VH: B4 VH with A100D, S101L, T102P, Y103L, D105R
VL: B2 VL with A30R, S32W, K50G, S91G, N92D, R96W
notes: Soluble Fab-His
Fab Binding [1]: 1.6e+06 relative chemiluminescence units
fold above background [2]: ≥ 6 fold

More lines, now with the values ahead:

Fab Binding [1]: 1.4e+06 relative chemiluminescence units
fold above background [2]: ≥ 6 fold
B1: Fab F123 (VH H120, VL PH9L4) (Fab, V domains shown)
VH: QVQLVQSGAEVKKPGSSVKVSCKASGGTFSSYAISWVRQAPGQGLEWMGGIIPIFGTANYAQKFQGRVTITADESTSTAYMELSSLRSEDTAVYYCARHDVNSLWAYFDYWGQGTLVTVSS
VL: not shown
notes: Soluble Fab-His

Fab Binding [1]: 1.4e+06 relative chemiluminescence units
fold above background [2]: ≥ 6 fold
B3: Fab F121 (VH H115, VL L106) (Fab, V domains shown)
VH: B1 VH with H99G, V101A, S103A, W105Y, A106D
VL: B2 VL with A30S, D31N, S32W, K50T, S91R, N92Y, G93T, W94A, R96W
notes: Soluble Fab-His

Fab Binding [1]: 4.2e+06 relative chemiluminescence units
fold above background [2]: ≥ 6 fold
B6: Fab F86 (VH H80, VL L80) (Fab, V domains shown)
VH: B1 VH with H99P, D100I, V101G, N102T, S103G, L104Y, W105Y, A106G, Y107F
VL: B4 VL with D30A, G31K, A50F
notes: Soluble Fab-His; converted to mAb B7

Fab Binding [1]: 1.7e+06 relative chemiluminescence units
fold above background [2]: ≥ 6 fold
B8: Fab F71 (VH H2, VL L65) (Fab, V domains shown)
VH: B4 VH with A100D, S101L, T102P, Y103L, D105R
VL: B2 VL with A30S, S32Y, K50D, S91G, N92S, G93D, W94A, R96L
notes: Soluble Fab-His

Fab Binding [1]: 1.6e+06 relative chemiluminescence units
fold above background [2]: ≥ 6 fold
B9: Fab F62 (VH H54, VL GCGL18) (Fab, V domains shown)
VH: B4 VH with D99E, A100D, S101V, T102A, Y103L, D105R
VL: not shown
notes: Soluble Fab-His

Fab Binding [1]: 1.3e+06 relative chemiluminescence units
fold above background [2]: ≥ 6 fold
B14: Fab F102 (VH H2, VL L91) (Fab, V domains shown)
VH: B4 VH with A100D, S101L, T102P, Y103L, D105R
VL: B2 VL with S32W, N92F, G93R, R96L
notes: Soluble Fab-His

Fab Binding [1]: 1.7e+07 relative chemiluminescence units
fold above background [2]: ≥ 6 fold
B16: Fab F73 (VH H66, VL L67) (Fab, V domains shown)
VH: B4 VH with A100L, S101Y, T102I
VL: B4 VL with D30G, A50T, S93T, T94Y, L96I
notes: Soluble Fab-His; converted to mAb B6

Fab Binding [1]: 4.9e+06 relative chemiluminescence units
fold above background [2]: ≥ 6 fold
B17: Fab F143 (VH H148, VL H2RL12) (Fab, V domains shown)
VH: B4 VH with A100F, T102V, L106F
VL: B4 VL with D30A, G31K
notes: Soluble Fab-His; converted to mAb B13

Fab Binding [1]: 1.9e+06 relative chemiluminescence units
fold above background [2]: ≥ 6 fold
B23: Fab F50 (VH H25, VL L46) (Fab, V domains shown)
VH: B4 VH with A100D, S101L, T102A, Y103L, D105R
VL: B2 VL with A30S, D31S, S32F, K50T, N92H, G93R, W94A, R96W
notes: Soluble Fab-His

Fab Binding [1]: 5.1e+06 relative chemiluminescence units
fold above background [2]: ≥ 6 fold
B24: Fab F104 (VH H96, VL IFWL124) (Fab, V domains shown)
VH: B4 VH with T57N, A58T, A100I, T102G
VL: B4 VL
notes: Soluble Fab-His; converted to mAb B14

Fab Binding [1]: 5.9e+06 relative chemiluminescence units
fold above background [2]: ≥ 6 fold
B25: Fab F96 (VH H89, VL IFWL124) (Fab, V domains shown)
VH: B4 VH with A100S, T102A, L106F
VL: B4 VL
notes: Soluble Fab-His; converted to mAb B8
